Measurements taken from patent US20100311648A1 (AstraZeneca / MedImmune, published 2010).
Positions of bridges follow the written chain, without caps; N, C: chain ends. Non-standard residues stand in square brackets, D forms with d. dPhe(4-CN) = N#Cc1ccc(C[C@@H](N)C(=O)O)cc1; dPhe(3-Cl) = N[C@H](Cc1cccc(Cl)c1)C(=O)O; dPhe(2-Cl) = N[C@H](Cc1ccccc1Cl)C(=O)O; dPhe(4-F) = N[C@H](Cc1ccc(F)cc1)C(=O)O; dPhe(2-F) = N[C@H](Cc1ccccc1F)C(=O)O; Orn = NCCC[C@H](N)C(=O)O

B1: Ac-Arg-cyclo(Glu-Asn-D-Phe(2-Cl)-Arg-Trp-Orn)-NH2 (peptide)
peptide: Ac-REN[dPhe(2-Cl)]RW[Orn]-NH2
modifications: lactam 2-7
SMILES: CC(=O)N[C@@H](CCCNC(=N)N)C(=O)N[C@H]1CCC(=O)NCCC[C@@H](C(N)=O)NC(=O)[C@H](Cc2c[nH]c3ccccc23)NC(=O)[C@H](CCCNC(=N)N)NC(=O)[C@@H](Cc2ccccc2Cl)NC(=O)[C@H](CC(N)=O)NC1=O
notes: also called No. 84
B2: Ac-Arg-cyclo(Glu-Pro-D-Phe(2-F)-Arg-Trp-Orn)-NH2 (peptide)
peptide: Ac-REP[dPhe(2-F)]RW[Orn]-NH2
modifications: lactam 2-7
SMILES: CC(=O)N[C@@H](CCCNC(=N)N)C(=O)N[C@H]1CCC(=O)NCCC[C@@H](C(N)=O)NC(=O)[C@H](Cc2c[nH]c3ccccc23)NC(=O)[C@H](CCCNC(=N)N)NC(=O)[C@@H](Cc2ccccc2F)NC(=O)[C@@H]2CCCN2C1=O
notes: also called No. 66
B3: Ac-Arg-cyclo(Glu-Asn-D-Phe(4-F)-Arg-Trp-Orn)-NH2 (peptide)
peptide: Ac-REN[dPhe(4-F)]RW[Orn]-NH2
modifications: lactam 2-7
notes: also called No. 69
B4: Ac-Arg-cyclo(Glu-Pro-D-Phe(4-CN)-Arg-Trp-Orn)-NH2 (peptide)
peptide: Ac-REP[dPhe(4-CN)]RW[Orn]-NH2
modifications: lactam 2-7
SMILES: CC(=O)N[C@@H](CCCNC(=N)N)C(=O)N[C@H]1CCC(=O)NCCC[C@@H](C(N)=O)NC(=O)[C@H](Cc2c[nH]c3ccccc23)NC(=O)[C@H](CCCNC(=N)N)NC(=O)[C@@H](Cc2ccc(C#N)cc2)NC(=O)[C@@H]2CCCN2C1=O
notes: also called No. 39
B5: Ac-Arg-cyclo(Glu-Asp-D-Phe(4-CN)-Arg-Trp-Orn)-OH (peptide)
peptide: Ac-RED[dPhe(4-CN)]RW[Orn]-OH
modifications: lactam 2-7
SMILES: CC(=O)N[C@@H](CCCNC(=N)N)C(=O)N[C@H]1CCC(=O)NCCC[C@@H](C(=O)O)NC(=O)[C@H](Cc2c[nH]c3ccccc23)NC(=O)[C@H](CCCNC(=N)N)NC(=O)[C@@H](Cc2ccc(C#N)cc2)NC(=O)[C@H](CC(=O)O)NC1=O
notes: also called No. 107
B6: Ac-Arg-cyclo(Glu-Glu-D-Phe(4-CN)-Arg-Trp-Orn)-NH2 (peptide)
peptide: Ac-REE[dPhe(4-CN)]RW[Orn]-NH2
modifications: lactam 2-7
SMILES: CC(=O)N[C@@H](CCCNC(=N)N)C(=O)N[C@H]1CCC(=O)NCCC[C@@H](C(N)=O)NC(=O)[C@H](Cc2c[nH]c3ccccc23)NC(=O)[C@H](CCCNC(=N)N)NC(=O)[C@@H](Cc2ccc(C#N)cc2)NC(=O)[C@H](CCC(=O)O)NC1=O
B7: Ac-Arg-cyclo(Glu-Thr-D-Phe(4-CN)-Arg-Trp-Orn)-NH2 (peptide)
peptide: Ac-RET[dPhe(4-CN)]RW[Orn]-NH2
modifications: lactam 2-7
SMILES: CC(=O)N[C@@H](CCCNC(=N)N)C(=O)N[C@H]1CCC(=O)NCCC[C@@H](C(N)=O)NC(=O)[C@H](Cc2c[nH]c3ccccc23)NC(=O)[C@H](CCCNC(=N)N)NC(=O)[C@@H](Cc2ccc(C#N)cc2)NC(=O)[C@H]([C@@H](C)O)NC1=O
notes: also called No. 44
B8: Ac-Arg-cyclo(Glu-Pro-D-Phe(4-F)-Arg-Trp-Orn)-NH2 (peptide)
peptide: Ac-REP[dPhe(4-F)]RW[Orn]-NH2
modifications: lactam 2-7; also: acetate salt
notes: acetate salt form; also called Ex 67
B9: Ac-Arg-cyclo(Glu-Asp-D-Phe(4-CN)-Arg-Trp-Orn)-NH2 (peptide)
peptide: Ac-RED[dPhe(4-CN)]RW[Orn]-NH2
modifications: lactam 2-7
SMILES: CC(=O)N[C@@H](CCCNC(=N)N)C(=O)N[C@H]1CCC(=O)NCCC[C@@H](C(N)=O)NC(=O)[C@H](Cc2c[nH]c3ccccc23)NC(=O)[C@H](CCCNC(=N)N)NC(=O)[C@@H](Cc2ccc(C#N)cc2)NC(=O)[C@H](CC(=O)O)NC1=O
notes: also called No. 106
B10: Ac-Arg-cyclo(Glu-Ser-D-Phe(4-F)-Arg-Trp-Orn)-NH2 (peptide)
peptide: Ac-RES[dPhe(4-F)]RW[Orn]-NH2
modifications: lactam 2-7
SMILES: CC(=O)N[C@@H](CCCNC(=N)N)C(=O)N[C@H]1CCC(=O)NCCC[C@@H](C(N)=O)NC(=O)[C@H](Cc2c[nH]c3ccccc23)NC(=O)[C@H](CCCNC(=N)N)NC(=O)[C@@H](Cc2ccc(F)cc2)NC(=O)[C@H](CO)NC1=O
notes: also called No. 65
B11: Ac-Arg-cyclo(Glu-Ser-D-Phe(4-CN)-Arg-Trp-Orn)-NH2 (peptide)
peptide: Ac-RES[dPhe(4-CN)]RW[Orn]-NH2
modifications: lactam 2-7
SMILES: CC(=O)N[C@@H](CCCNC(=N)N)C(=O)N[C@H]1CCC(=O)NCCC[C@@H](C(N)=O)NC(=O)[C@H](Cc2c[nH]c3ccccc23)NC(=O)[C@H](CCCNC(=N)N)NC(=O)[C@@H](Cc2ccc(C#N)cc2)NC(=O)[C@H](CO)NC1=O
notes: also called No. 45
B12: Ac-Arg-cyclo(Glu-Asn-D-Phe(4-CN)-Arg-Trp-Orn)-NH2 (peptide)
peptide: Ac-REN[dPhe(4-CN)]RW[Orn]-NH2
modifications: lactam 2-7; also: acetate salt
notes: acetate salt form; also called Ex 43
B13: Ac-Arg-cyclo(Glu-Pro-D-Phe(4-F)-Arg-Trp-Orn)-OH (peptide)
peptide: Ac-REP[dPhe(4-F)]RW[Orn]-OH
modifications: lactam 2-7
SMILES: CC(=O)N[C@@H](CCCNC(=N)N)C(=O)N[C@H]1CCC(=O)NCCC[C@@H](C(=O)O)NC(=O)[C@H](Cc2c[nH]c3ccccc23)NC(=O)[C@H](CCCNC(=N)N)NC(=O)[C@@H](Cc2ccc(F)cc2)NC(=O)[C@@H]2CCCN2C1=O
B14: Ac-Arg-cyclo(Glu-Ser-D-Phe(2-Cl)-Arg-Trp-Orn)-NH2 (peptide)
peptide: Ac-RES[dPhe(2-Cl)]RW[Orn]-NH2
modifications: lactam 2-7
SMILES: CC(=O)N[C@@H](CCCNC(=N)N)C(=O)N[C@H]1CCC(=O)NCCC[C@@H](C(N)=O)NC(=O)[C@H](Cc2c[nH]c3ccccc23)NC(=O)[C@H](CCCNC(=N)N)NC(=O)[C@@H](Cc2ccccc2Cl)NC(=O)[C@H](CO)NC1=O
notes: also called No. 31
B15: Ac-Arg-cyclo(Glu-Gln-D-Phe(3-Cl)-Arg-Trp-Orn)-NH2 (peptide)
peptide: Ac-REQ[dPhe(3-Cl)]RW[Orn]-NH2
modifications: lactam 2-7
notes: also called No. 38

Key:
[1] = target: T1, human melanocortin-4 receptor (human, UniProt P32245 1-332); assay: [I125]-NDP-α-MSH competition, hMC4-R HEK-293 membranes
T1 construct: whole, on cells; functional assay: HEK293-T-REx-MC4-R cells induced with 0.1 or 10 ng/mL doxycycline; also called hMC4-R; MC4-R
Description: (§1) A competitive inhibition binding assay was performed for exemplified peptides according to the invention using membrane homogenates prepared from HEK-293 cells that express recombinant hMC4-R, hMC3-R, or hMC5-R, and from B-16 mouse melanoma cells (containing endogenous MC1-R). In some instances, HEK-293 cells that express recombinant hMC1-R were employed. Assays were performed in 96 well GF/B Millipore multiscreen filtration plates (MAFB NOB10) pre-coated with 0.5% bovine serum albumin (Fraction V). […] After incubation for 60 minutes at 37° C., the assay mixture was filtered and the membranes washed three times with ice-cold buffer. Filters were dried and counted in a gamma counter for bound radioactivity. […] Each assay was conducted in triplicate and the actual mean values are described, with results less than 0% reported as 0%. Ki values for test peptides of the present invention were determined using Graph-Pad Prism® curve-fitting software.

[2] = target: T2, melanocortin-1 receptor (mouse (B-16 melanoma cells); in some …, UniProt Q01727 1-315); assay: [I125]-NDP-α-MSH competition, MC1-R membranes
T2 construct: whole, on cells; membrane homogenates; also called MC1-R; mouse B16 MC1-R
Description: as §1

[3] = target: T1, human melanocortin-4 receptor; assay: cell-based or functional assay

T1 sequence (P32245 whole entry): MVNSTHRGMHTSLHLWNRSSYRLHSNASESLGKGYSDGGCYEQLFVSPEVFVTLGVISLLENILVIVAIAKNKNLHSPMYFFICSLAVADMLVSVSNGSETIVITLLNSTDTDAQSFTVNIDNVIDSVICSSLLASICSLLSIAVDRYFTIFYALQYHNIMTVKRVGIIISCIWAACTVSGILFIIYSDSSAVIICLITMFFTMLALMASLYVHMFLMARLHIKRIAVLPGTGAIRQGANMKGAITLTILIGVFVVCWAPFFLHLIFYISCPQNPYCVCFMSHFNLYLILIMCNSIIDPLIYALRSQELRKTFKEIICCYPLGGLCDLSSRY
T2 sequence (Q01727 whole entry): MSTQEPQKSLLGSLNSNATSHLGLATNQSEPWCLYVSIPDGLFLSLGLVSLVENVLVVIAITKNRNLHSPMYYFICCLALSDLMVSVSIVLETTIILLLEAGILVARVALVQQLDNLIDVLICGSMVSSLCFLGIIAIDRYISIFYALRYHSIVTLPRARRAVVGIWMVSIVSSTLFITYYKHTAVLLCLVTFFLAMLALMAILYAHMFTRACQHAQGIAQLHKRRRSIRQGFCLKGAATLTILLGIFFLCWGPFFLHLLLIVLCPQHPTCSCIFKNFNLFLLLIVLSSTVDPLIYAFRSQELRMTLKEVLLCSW

Binder | Ki [1] | Ki [2] | EC50, cAMP, 0.1 ng/mL Doxycycline [3] | EC50, cAMP, 10 ng/mL Doxycycline [3] | Intrinsic Activity, cAMP, 0.1 ng/mL Doxycycline [3] | Intrinsic Activity, cAMP, 10 ng/mL Doxycycline [3]
B1 | 7 nM | 245 nM | 0.633 nM | 0.09 nM | 78% | 97%
B2 | 6 nM | 95 nM | 5 nM | 0.265 nM | 32% | 88%
B3 | 3 nM | 150 nM | 0.25 nM | 0.095 nM | 76% | 92%
B4 | 4 nM | 1550 nM | – | 1 nM | 4% | 79%
B5 | 6460 nM | 10000 nM | – | – | 4% | 64%
B6 | 128 nM | 10000 nM | – | 9 nM | 3% | 59%
B7 | 18 nM | 1620 nM | 11 nM | 0.617 nM | 22% | 99%
B8 | 5 nM | 130 nM | 1 nM | 0.14 nM | 38% | 99%
B9 | 647 nM | 10000 nM | – | 113 nM | 3% | 77%
B10 | 5 nM | 43 nM | 1 nM | 0.085 nM | 58% | 93%
B11 | 10 nM | 10000 nM | – | 0.45 nM | 12% | 87%
B12 | 5 nM | 870 nM | 1 nM | 0.177 nM | 43% | 100%
B13 | 30 nM | 730 nM | 18 nM | 0.725 nM | 30% | 97%
B14 | 8 nM | 300 nM | 7 nM | 0.313 nM | 33% | 98%
B15 | 3 nM | 290 nM | 2 nM | 0.258 nM | 31% | 97%
